In patent US11903969:

Biological target: CD19 on CD19+ cells (Nalm6-GL, Raji, donor B cells) (UniProt P15391)
Assay: cell-based or functional assay

Chain of UniProt P15391 (P15391 20-556 limits assumed): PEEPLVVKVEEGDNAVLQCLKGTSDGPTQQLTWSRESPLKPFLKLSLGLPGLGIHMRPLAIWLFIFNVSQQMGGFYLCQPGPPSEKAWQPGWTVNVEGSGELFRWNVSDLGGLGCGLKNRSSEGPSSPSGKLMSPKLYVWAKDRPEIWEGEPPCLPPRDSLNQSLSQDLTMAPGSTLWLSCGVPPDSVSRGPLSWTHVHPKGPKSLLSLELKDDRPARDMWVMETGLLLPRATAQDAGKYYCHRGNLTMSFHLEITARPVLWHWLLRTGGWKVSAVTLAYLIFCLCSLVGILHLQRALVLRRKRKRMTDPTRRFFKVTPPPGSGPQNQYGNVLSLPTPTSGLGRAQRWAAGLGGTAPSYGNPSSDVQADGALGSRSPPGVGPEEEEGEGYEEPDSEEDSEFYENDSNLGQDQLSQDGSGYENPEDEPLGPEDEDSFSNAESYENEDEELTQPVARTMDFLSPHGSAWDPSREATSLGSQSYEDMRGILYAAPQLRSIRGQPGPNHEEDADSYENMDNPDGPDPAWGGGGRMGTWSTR

CD19+ cell population (B cells) remaining 24 hours after gene targeting: 2.53%
Substance: CD19.28.ζ-CAR (CD19-specific chimeric antigen receptor with FMC63 scFv, CD28 hinge, transmembrane and intracellular sequences and CD3ζ intracellular domain) (from UniProt P10747 114-220; P20963 52-164)
